The text below walks through data of US20130260455A1 (ONCOMED PHARMACEUTICALS, published 2013).

Residue numbers refer to the chain shown, from its start.

The target in experiment [1] is T1, recombinant human Notch2 (EGF1-12) (human, UniProt Q04721 26-493).
T1 construct: also called hNotch2 *N2(EGF1-12)
T1 sequence: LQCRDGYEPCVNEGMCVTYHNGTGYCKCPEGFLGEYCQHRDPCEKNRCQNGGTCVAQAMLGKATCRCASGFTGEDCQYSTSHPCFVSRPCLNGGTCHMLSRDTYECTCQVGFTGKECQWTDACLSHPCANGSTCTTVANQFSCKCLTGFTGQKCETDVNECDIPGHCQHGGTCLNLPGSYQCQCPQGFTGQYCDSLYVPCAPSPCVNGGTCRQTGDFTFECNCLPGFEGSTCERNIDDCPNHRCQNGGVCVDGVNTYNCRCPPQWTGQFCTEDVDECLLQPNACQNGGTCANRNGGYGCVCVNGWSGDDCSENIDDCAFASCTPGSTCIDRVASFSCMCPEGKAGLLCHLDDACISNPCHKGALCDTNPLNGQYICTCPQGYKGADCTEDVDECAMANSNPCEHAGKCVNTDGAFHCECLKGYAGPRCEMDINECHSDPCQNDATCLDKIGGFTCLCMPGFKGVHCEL
The experiment in a line: Biacore 2000 SPR; Notch protein amine-coupled to CM5 chip, antibody 1-100 nM injected. The protocol: (§1) The affinities for human and mouse Notch1, Notch2, Notch3, and Notch4 were determined using a Biacore 2000 instrument. Briefly, recombinant human and mouse Notch proteins (EGF10-15 for Notch1, 2, & 4; EGF9-14 for Notch3) were immobilized on a CM5 chip using standard amine based chemistry (NHS/EDC). For hNotch2. EGF1-12 was also tested for binding. Different antibody concentrations (1-100 nM) were injected over the protein surfaces and kinetic data were collected over time. The data was fit using the simultaneous global fit equation to yield dissociation constants (KD, nM) for each Notch (Table 3).
(In general: Surface plasmon resonance follows binding to a sensor surface in real time, without labels.)

Experiment [2] concerns the target T2, recombinant mouse Notch3 (EGF9-14) (mouse, UniProt Q61982 352-581).
T2 construct: domain: EGF9-14; also called mNotch3; m-Notch3
T2 sequence (looked up): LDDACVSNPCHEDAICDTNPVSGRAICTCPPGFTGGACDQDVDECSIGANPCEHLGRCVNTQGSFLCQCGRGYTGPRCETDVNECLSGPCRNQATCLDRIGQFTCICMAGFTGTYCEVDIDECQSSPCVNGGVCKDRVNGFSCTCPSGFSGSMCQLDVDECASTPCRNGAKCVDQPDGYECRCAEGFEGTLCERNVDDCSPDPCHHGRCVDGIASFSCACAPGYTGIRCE
The experiment is described as above. How it is done: as §1

Experiment [3] has as its target T3, recombinant human Notch3 (EGF9-14) (human, UniProt Q9UM47 351-580).
T3 construct: The whole entry for hNotch3 is named here; also called hNotch3; h-Notch3
T3 sequence: T2 sequence (looked up) with S22N, M153T, E193D, I227T
Described as above. The protocol: as §1

The target of experiment [4] is T4, recombinant human Notch2 (EGF10-15) (human, UniProt Q04721 375-605).
T4 construct: The whole entry for hNotch2 is named here; also called hNotch2 **N2(EGF 10-155)
T4 sequence: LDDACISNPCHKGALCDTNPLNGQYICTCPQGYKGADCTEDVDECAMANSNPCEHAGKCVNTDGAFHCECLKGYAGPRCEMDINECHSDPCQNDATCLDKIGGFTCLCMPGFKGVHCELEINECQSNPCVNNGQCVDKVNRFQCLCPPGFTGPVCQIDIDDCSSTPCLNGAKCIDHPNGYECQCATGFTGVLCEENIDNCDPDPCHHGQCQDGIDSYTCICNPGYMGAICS
The description is as above. How it is done: as §1

The target in experiment [5] is T5, recombinant mouse Notch2 (EGF10-15) (mouse, UniProt O35516 375-605).
T5 construct: domain: EGF10-15; also called mNotch2; m-Notch2
T5 sequence (looked up): T4 sequence with I121V, V191I, E194D
The description is as above. The protocol:
as §1

Experiment [6] addresses T6, recombinant human Notch1 (EGF10-15) (human, UniProt P46531 372-601).
T6 construct: The whole entry for hNotch1 is named here; also called hNotch1; h-Notch1
Put plainly: Biacore 2000 SPR; Notch protein amine-coupled to CM5 chip, antibody 1-100 nM injected; Table 3: Biacore 2000, hNotch1 EGF10-15 on CM5 chip, antibody 1-100 nM; fitted KD. How it is done:
as §1

For experiment [7], the target named is T7, human Notch4, full length, on transfected cells (human, UniProt Q99466 24-2003).
T7 construct: also called hNotch4
T7 sequence (Q99466 24-2003 limits assumed): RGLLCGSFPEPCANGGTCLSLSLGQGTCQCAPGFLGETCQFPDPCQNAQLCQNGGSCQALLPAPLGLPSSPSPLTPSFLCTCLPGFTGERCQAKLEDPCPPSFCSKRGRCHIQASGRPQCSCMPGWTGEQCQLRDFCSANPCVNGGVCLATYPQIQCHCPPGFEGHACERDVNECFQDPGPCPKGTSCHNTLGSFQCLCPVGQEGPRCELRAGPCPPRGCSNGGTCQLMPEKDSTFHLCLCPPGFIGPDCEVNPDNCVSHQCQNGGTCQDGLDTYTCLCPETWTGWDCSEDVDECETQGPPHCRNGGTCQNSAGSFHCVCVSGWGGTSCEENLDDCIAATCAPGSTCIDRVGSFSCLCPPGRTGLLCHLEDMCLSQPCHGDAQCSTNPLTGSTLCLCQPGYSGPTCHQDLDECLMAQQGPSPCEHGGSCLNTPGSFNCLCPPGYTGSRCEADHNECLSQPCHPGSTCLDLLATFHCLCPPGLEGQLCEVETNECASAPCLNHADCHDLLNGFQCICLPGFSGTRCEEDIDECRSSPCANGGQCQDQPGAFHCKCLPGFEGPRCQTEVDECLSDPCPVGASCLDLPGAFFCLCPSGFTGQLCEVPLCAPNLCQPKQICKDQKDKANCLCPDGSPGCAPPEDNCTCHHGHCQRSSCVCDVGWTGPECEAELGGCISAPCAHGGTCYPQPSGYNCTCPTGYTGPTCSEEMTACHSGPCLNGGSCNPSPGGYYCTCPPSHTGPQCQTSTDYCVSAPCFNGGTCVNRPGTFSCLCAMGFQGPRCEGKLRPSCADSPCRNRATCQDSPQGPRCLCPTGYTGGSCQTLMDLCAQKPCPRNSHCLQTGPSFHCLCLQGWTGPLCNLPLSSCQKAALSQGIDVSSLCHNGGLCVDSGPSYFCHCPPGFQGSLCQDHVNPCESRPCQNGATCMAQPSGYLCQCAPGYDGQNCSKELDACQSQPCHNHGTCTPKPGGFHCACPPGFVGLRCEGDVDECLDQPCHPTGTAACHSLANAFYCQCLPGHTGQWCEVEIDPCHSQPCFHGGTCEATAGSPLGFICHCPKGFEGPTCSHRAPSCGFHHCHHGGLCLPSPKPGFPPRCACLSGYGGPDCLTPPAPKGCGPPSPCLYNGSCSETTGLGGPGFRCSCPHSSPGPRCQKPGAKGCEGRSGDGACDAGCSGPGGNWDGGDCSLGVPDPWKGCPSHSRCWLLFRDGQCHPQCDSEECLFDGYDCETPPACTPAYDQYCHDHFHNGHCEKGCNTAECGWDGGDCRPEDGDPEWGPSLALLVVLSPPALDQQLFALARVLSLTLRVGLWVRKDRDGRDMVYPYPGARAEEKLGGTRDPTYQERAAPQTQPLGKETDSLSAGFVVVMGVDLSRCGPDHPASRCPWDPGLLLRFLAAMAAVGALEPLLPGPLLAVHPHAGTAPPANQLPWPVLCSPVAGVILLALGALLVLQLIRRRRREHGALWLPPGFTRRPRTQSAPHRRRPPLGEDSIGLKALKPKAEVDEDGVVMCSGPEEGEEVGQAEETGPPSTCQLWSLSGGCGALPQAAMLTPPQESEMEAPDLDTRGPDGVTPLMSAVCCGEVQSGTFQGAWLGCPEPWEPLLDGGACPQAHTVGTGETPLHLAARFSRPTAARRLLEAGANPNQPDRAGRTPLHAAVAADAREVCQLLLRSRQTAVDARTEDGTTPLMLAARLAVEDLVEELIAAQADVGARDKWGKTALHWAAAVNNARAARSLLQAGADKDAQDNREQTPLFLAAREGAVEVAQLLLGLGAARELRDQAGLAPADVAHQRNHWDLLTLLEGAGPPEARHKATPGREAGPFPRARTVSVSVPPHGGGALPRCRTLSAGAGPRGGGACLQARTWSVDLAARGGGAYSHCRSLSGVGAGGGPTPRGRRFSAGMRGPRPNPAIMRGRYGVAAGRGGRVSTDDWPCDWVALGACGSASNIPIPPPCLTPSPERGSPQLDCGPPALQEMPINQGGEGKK
The experiment in a line: FACS on HEK-293 cells transiently transfected with hNotch4 and GFP. The protocol: The ability of the 59R1 IgG2 antibody to cross-react with other Notch receptors was determined by FACS assay using HEK-293 cells transiently transfected with the human Notch1, Notch2. Notch3 or Notch4 expression plasmid and green fluorescent protein (GFP) as a transfection control. GFP positive cells indicated expression of the transgene. The 59R1 IgG2 was added to the cells at 2 μg/ml and detected by PE-conjugated goat anti-human Fc gamma specific (Jackson Immunochemicals). All Notch constructs were full length.

B1: 59R1 IgG2 antibody (antibody, V domains shown)
VH: QVQLVESGGGLVQPGGSLRLSCAASGFTFSSSGMSWVRQAPGKGLEWVSVIASSGSNTYYADSVKGRFTISRDNSKNTLYLQMNSLRAEDTAVYYCARGIFFAIWGQGTLVTVSS
VL: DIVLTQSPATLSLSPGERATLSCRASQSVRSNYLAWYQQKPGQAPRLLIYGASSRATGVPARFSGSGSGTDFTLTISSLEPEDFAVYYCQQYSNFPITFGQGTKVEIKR
notes: Human IgG2/kappa made in CHO cells; also called anti-Notch2/3 antibody 59R1
As to B1, the Kd (in general, the concentration at which binding is half-saturated) in experiment [1] was less than 0.1 nM; in experiment [2], 0.13 nM; in experiment [3] it was 0.12 nM; in experiment [4] it was less than 0.1 nM; in experiment [5], 0.35 nM; in experiment [6], 86.4 nM. Besides, the binding result in experiment [7] is given as “no binding (tested: 2 ug/ml)”.
